This note sets out measurements from patent US20240287172A1 (SCIRHOM, published 2024).

Numbering of substitutions follows the chain as printed.

The target of the test is T1, human iRhom2, endogenously expressed (human, UniProt Q6PJF5 1-856).
T1 sequence: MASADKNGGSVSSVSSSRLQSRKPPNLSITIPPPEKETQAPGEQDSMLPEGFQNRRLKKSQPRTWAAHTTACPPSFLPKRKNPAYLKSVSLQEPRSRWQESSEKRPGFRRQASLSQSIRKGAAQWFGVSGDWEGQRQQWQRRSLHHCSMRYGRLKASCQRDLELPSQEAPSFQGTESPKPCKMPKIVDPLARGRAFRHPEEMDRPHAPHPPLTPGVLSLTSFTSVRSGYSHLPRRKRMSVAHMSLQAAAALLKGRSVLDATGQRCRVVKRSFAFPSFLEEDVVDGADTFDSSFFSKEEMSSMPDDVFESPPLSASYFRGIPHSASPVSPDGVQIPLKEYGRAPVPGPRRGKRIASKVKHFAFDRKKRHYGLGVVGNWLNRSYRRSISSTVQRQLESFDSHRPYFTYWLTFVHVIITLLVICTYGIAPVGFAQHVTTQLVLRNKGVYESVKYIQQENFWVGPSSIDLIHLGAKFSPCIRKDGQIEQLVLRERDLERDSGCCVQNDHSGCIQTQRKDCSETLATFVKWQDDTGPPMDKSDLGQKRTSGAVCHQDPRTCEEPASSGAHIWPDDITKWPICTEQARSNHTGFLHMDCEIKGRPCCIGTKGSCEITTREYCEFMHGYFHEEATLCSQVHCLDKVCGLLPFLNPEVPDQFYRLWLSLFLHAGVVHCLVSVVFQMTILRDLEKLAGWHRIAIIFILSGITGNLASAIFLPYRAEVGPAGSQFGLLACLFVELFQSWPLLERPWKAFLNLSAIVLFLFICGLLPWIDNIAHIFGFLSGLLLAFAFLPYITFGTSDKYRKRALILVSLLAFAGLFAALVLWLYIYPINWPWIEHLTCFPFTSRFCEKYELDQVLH
Put plainly: cell-based or functional assay.

B1: antibody 46 (antibody, V domains shown)
VH: QVTLKESGPGILQPSQTLSLTCSFSGFSLSTFGMGVGWIRQPSGKGLEWLAHIWWDDDNYYNQALKSRLTISKDNTKNQVFLNIANVDTADTATYYCARIRSYDYDVRYAMDYWGQGTSVTVSS
VL: DIKMTQSPSSMYASLRERVTITCKASQDINSYLSWFQQKPGKSPKTLIYRANRLVDGVPSRFSGSGSGQDYSLTISSLEYEDLGIYYCQQYYEFPLTFGAGTRLELK
notes: mouse IgG, kappa light chain; also called clone #46
Consider B1, for which the “LPS-induced TNFα release from THP-1 cells, percent inhibition, recombinant antibody” value is 36.1%.

B2: antibody 16 (antibody, V domains shown)
VH: QVTLKESGPGILQPSQTLSLTCSFSGFSLSTFALGVGWIRQPSGRGLEWLAHIWWDDDKYYNPALKSRLTISKDTSKNHVFLKIANVDTADTATYYCARITTYYYGMDYWGQGTSVTVSS
VL: DIVLSQSPATLSVTPGDSVSLFCRASQSIGNHLHWYQQESHASPRLLIKYASQSISGIPSRFSGSGSGTDFTLSINSVETEDFGMYFCQQSYNWPLTFGAGTKLELK
notes: mouse IgG, kappa light chain; also called clone #16; purified antibody 16
As for B2, the “LPS-induced TNFα release from PBMCs of healthy donors, percent inhibition, 1 µg/ml” value came to 81.3%; the “LPS-induced TNFα release from THP-1 cells, percent inhibition, 10 µg/ml, hybridoma-purified” value was determined as 65.4%; the “LPS-induced TNFα release from THP-1 cells, percent inhibition, recombinant antibody” value was determined as 70.7%; the “LPS-induced TNFα release from human macrophages of healthy donors, percent inhibition, 10 µg/ml” value is 85.8%. Moreover, the “PMA-induced HB-EGF release from PBMCs of healthy donors, percent inhibition, 1 µg/ml” value was 71.6%; the “PMA-induced HB-EGF release from THP-1 cells, percent inhibition, 3 µg/ml” value stood at 71.9%; the “PMA-induced HB-EGF release from U-937 cells, percent inhibition” value was found to be 99.6%; the “PMA-induced IL-6R release from PBMCs of healthy donors, percent inhibition, 1 µg/ml” value was 84.3%. The “PMA-induced IL-6R release from THP-1 cells, percent inhibition, 1 µg/ml” value was determined as 72.5%; the “PMA-induced IL-6R release from U-937 cells, percent inhibition, 1 µg/ml” value was 77.7%; the “PMA-induced IL-6R release from U-937 cells, percent inhibition, 3 µg/ml” value came to 77.4%; the “PMA-induced TGFα release from PC3 cells, percent inhibition, 1 µg/ml” value was found to be 13.9%. The “PMA-induced TNFα release from U-937 cells, percent inhibition, 1 µg/ml” value came out at 91.6% and the “PMA-induced TNFα release from U-937 cells, percent inhibition, 3 µg/ml” value was 91.9%.

B3: antibody 3 (antibody, V domains shown)
VH: QVTLKESGPGILQPSQTLSLTCSFSGFSLTTFAMGIGWVRQPSGKGLEWLAHIWWDGEKYNNPVLKSRLTISKDTSKNQVFLRIANVDTPDTATYYCARISSIYYIIDNWGQGTSVTVSS
VL: B2 VL with S5T, D17H, F22S, G30S, H32N, Q38K, E39K, A42E, A51V
notes: mouse IgG, kappa light chain; also called clone #3; purified antibody 3
B3: the “LPS-induced TNFα release from THP-1 cells, percent inhibition, 10 µg/ml, hybridoma-purified” value was 71.2%; the “LPS-induced TNFα release from THP-1 cells, percent inhibition, recombinant antibody” value turned out to be 59.9%; the “PMA-induced IL-6R release from THP-1 cells, percent inhibition, 1 µg/ml” value amounted to 46.7%; the “PMA-induced IL-6R release from U-937 cells, percent inhibition, 1 µg/ml” value came out at 61.8%. Besides, the “PMA-induced TNFα release from U-937 cells, percent inhibition, 1 µg/ml” value was determined as 65.9%.

B4: antibody 57 (antibody, V domains shown)
VH: QVTLKESGPGILQPSQTLSLTCSFSGFSLSTFGMGVGWIRQPSGKGLEWLAHIWWDDDKYYNPALKSRLTISKDTSKNQIFLKIANVDTADSATFYCARIENYGSNYWYFDVWGTGTTVTVSS
VL: QIVLTQSPAIMSASPGEKVTMTCSASSSVSYMYWYQQKPGSSPRVLIYDTSNLASGVPVRFSGSGSGTSYSLTVSRMEAEDAATYYCQQWNSYPLTFGAGTKLELK
notes: mouse IgG, kappa light chain; also called clone #57
Regarding B4, the “LPS-induced TNFα release from THP-1 cells, percent inhibition, recombinant antibody” value is 59.7%.

B5: antibody 54 (antibody, V domains shown)
VH: B4 VH with M34L, W49C, Y61S, I80V, T89S, S92T, F95Y, Y96F, E101L
VL: B4 VL with I10L, V29I, V45L, Y70F
notes: mouse IgG, kappa light chain; also called clone #54
On to B5, for which the “LPS-induced TNFα release from THP-1 cells, percent inhibition, recombinant antibody” value was 67.9%.

B6: antibody 49 (antibody, V domains shown)
VH: B4 VH with K66Q, I71V, S76A, I80V, S92T, T94I, F95Y, I100V, E101G, D111A
VL: B4 VL with V45L, V74I
notes: mouse IgG, kappa light chain; also called clone #49
B6: the “LPS-induced TNFα release from THP-1 cells, percent inhibition, recombinant antibody” value was 59.9%.

B7: antibody 56 (antibody, V domains shown)
VH: B4 VH with A51T, H52N, P63S, A64V, I80V, S92T, F95Y, E101A, N102A
VL: B4 VL with A54S, V74I, N91S
notes: mouse IgG, kappa light chain; also called clone #56
B7: the “LPS-induced TNFα release from THP-1 cells, percent inhibition, recombinant antibody” value is 65.8%.
